Experiments:
[1] = target: MUC1-CD cytoplasmic domain (Homo sapiens) (UniProt P15941); settings: cited from earlier work
[2] = target: T1, His-tagged MUC1 cytoplasmic domain (UniProt P15941 1182-1255); assay: SPR
T1 sequence (looked up): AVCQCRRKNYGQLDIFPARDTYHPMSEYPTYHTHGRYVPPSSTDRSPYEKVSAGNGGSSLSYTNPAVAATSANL

Molecule	Kd [1] [nM]	Kd [2] [nM]
MUC1-CD cytoplasmic domain (from UniProt P15941)	33	–
CQCRRKNYGQLDIFP (poly D-arginine transduction domain (D-residues)) [GO-201]	–	30

Reference: publication PMC2721222 (Cancer research, 2009)
